Earlier results as cited in publication PMC7179994.
Read-outs that look alike come from different tables or passages of the source. Each block holds one substance with its values, some of them ahead of it.

Assays:
[1] = biological target: VE-cadherin (Homo sapiens) (UniProt P33151)
[2] = biological target: VLDL receptor (Homo sapiens) (UniProt P98155)
[3] = biological target: VE-cadherin (Homo sapiens) (UniProt P33151); remark: listed apart in the source

Chain of VE-cadherin (Homo sapiens) (P33151 48-599): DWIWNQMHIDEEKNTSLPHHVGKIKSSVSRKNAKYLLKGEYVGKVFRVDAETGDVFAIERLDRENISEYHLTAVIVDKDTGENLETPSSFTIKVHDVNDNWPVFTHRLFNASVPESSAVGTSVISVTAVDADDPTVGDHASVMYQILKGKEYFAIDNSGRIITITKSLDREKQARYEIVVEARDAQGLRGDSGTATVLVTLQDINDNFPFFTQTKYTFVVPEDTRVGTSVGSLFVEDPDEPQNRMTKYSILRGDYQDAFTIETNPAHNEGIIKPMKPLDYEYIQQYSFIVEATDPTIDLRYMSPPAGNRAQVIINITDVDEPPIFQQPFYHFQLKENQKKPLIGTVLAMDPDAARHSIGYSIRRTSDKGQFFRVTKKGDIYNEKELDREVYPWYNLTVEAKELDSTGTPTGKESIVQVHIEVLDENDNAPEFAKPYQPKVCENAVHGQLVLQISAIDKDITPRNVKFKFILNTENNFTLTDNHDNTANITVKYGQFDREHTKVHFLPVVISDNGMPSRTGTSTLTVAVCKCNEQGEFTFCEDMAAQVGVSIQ
Chain of fibrin β15–42 15-42 (P02675 15-42): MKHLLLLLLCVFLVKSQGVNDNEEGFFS
Chain of (β15–44)2 15-44 (P02675 15-44): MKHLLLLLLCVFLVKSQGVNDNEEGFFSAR

- Kd [1]: 715 nM
Substance: (β15–44)2 15-44 (from UniProt P02675)

- Kd [2]: 9.2 nM
Substance: fibrin (from UniProt P02671)

- Kd [3]: 267000 nM
Substance: fibrin β15–42 15-42 (from UniProt P02675)
